# Laboratory results reported in US20240173352A1 (published 2024).
# T1: HA-1(R), allelic variant of HA-1; Rho GTPase activating protein 45 (HMHA1) peptide on HLA-A*02:01 (human)
# T1 peptide: VLRDDLLEA
# T2: HA-1(H), minor histocompatibility antigen HA-1 variant H; Rho GTPase activating protein 45 (HMHA1) peptide on … (human)
# T2 peptide: VLHDDLLEA
# T3: mH-Y (MiHA-Y) peptide on H-2Db (mouse)
# T3 peptide: KCSRNRQYL
# Experiments:
# Experiment in all cases: activation reporter or marker
# [1] = target: T1, HA-1(R), allelic variant of HA-1; Rho …
# [2] = target: T2, HA-1(H), minor histocompatibility …
# [3] = target: T3, mH-Y (MiHA-Y) peptide on H-2Db
binding result [1],binding result [2],binding result [3],Binder
no recognition,recognises,,"KP7 HA-1H TCR (TCR, V domains shown) Valpha: KNEVEQSPQNLTAQEGEFITINCSYSVGISALHWLQQHPGGGIVSLFMLSSGKKKHGRLIATINIQEKHSSLHITASHPRDSAVYICAVRSVSGAGSYQLTFGKGTKLSVIP Vbeta: DTGVSQNPRHKITKRGQNVTFRCDPISEHNRLYWYRQTLGQGPEFLTYFQNEAQLEKSRLLSDRFSAERPKGSFSTLEIQRTEQGDSAMYLCASSIDSFNEQFFGPGTRLTVL"
,,recognises,"H-Y TCRalpha P2A TCRbeta Jb2.3L (TCR, V domains shown) Valpha: AQSVDQPDAHVTLSEGASLELRCSYSYSAAPYLFWYVQYPGQSLQFLLKYITGDTVVKGTKGFEAEFRKSNSSFNLKKSPAHWSDSAKYFCALEGQDQGGSAKLIFGEGTKLTVSS Vbeta: EAAVTQSPRNKVAVTGGKVTLSCNQTNNHNNMYWYRQDTGHGLRLIHYSYGAGSTEKGDIPDGYKASRPSQENFSLILELATPSQTSVYFCASGDNSAETLYFGPGTRLLVL"
